# B1: Rng2 (curly) 1-189 (protein)
# chain: MDVNVGLSRLQSQAGAPVGTKGSNTRLAAKQRETLQAYDYLCRVDEAKKWIEECLGTDLGPTSTFEQSLRNGVVLALLVQKFQPDKLIKIFYSNELQFRHSDNINKFLDFIHGIGLPEIFHFELTDIYEGKNLPKVIYCIHALSYFLSMQDLAPPLIKSDENLSFTDEDVSIIVRRLRQSNVILPNFKA
# Target: F-actin (skeletal muscle actin) (Oryctolagus cuniculus, UniProt P68135)
# Assay: actin co-sedimentation
binder,measurement,value
B1,Kd,1000 nM

# From paper PMC8315802 (2021)
